In the supplement of paper PMC9170038:

Test system: MS2 coat protein
Experiment: apparent KD of MS2 coat protein; designed switch direction (-1 OFF switch, 1 ON switch): -1; higher = weaker reporter binding
Outline: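 Transcription of designed RNA switches on Illumina chips was done by stalled E. coli RNA polymerase. SNAP-549-labelled MS2 coat protein was then titrated in doubling steps from 0.7 or 1.5 nM to 3 µM, with steps of 0.8–1.5 h at the lowest and 10–20 min at the highest concentration. The per-design median over clusters of curve-fitted normalised fluorescence is reported as apparent KD.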

[1] = Eterna round: R95, input ligand: microRNA oligo, concentration not stated
[2] = Eterna round: R95, input ligand: FMN 200 uM
[3] = Eterna round: R95, input ligand: none
[4] = input ligand: microRNA oligo, concentration not stated

Sequence | apparent KD of MS2 coat protein (input ligand: FMN 200 uM) [nM] | apparent KD of MS2 coat protein (input ligand: none) [nM] | apparent KD of MS2 coat protein [1] [nM] | apparent KD of MS2 coat protein [2] [nM] | apparent KD of MS2 coat protein [3] [nM] | apparent KD of MS2 coat protein [4] [nM]
AAUUAGCAAGCGAGAUCCCACAUGAGGAUCACCCAUGUGCUCGUCUUAUAUAAGGUACUGUACGAAAGUACGGUACC [Mat - Sensor, turn-off var - Eli Mod - D31] (Eterna round: R97, puzzle: Sensor, turn-off variant 1) | 16.4 | 16.4 | – | – | – | –
AAUUCACAUGAGGAUCACCCAUGUCAGGAUAUGGUUUCACGUGUUUCUGUGCUUGAGGCCAGAAGGGACAGCUA (puzzle: Exclusion 1) | – | – | 50.3 | – | – | –
AAUUCACAUGAGGAUCACCCAUGUGAGGAUAUGGAUUCGCUGGCCGUAGCCAGUGGAUCCAGAAGGCGCGUGAU [JL-ex1-4.27] (Eterna round: R97, puzzle: Exclusion 1) | 60.5 | 46.8 | – | – | – | –
AAUUGGUUAGGAUAUCGGGAAUAUCACAUGAGGAUCACCCAUGUGACCUUUAUGGUGUCAUGAGAAGGGACGCGGA [Eternabot (L1) Solution 11] (Eterna round: R97, puzzle: Exclusion 5) | 27.9 | 24.5 | – | – | – | –
AAUUUAACAUAGGAUAUCGAAUUUAUCAUUUAACGAGAAGGAUGAACAUGAGGAUCACCCAUGUGGUAUCAUGG [Mat - Exclusion 6 - JL Mod - D2] (puzzle: Exclusion 6) | – | – | 373 | 155 | 180 | –
AAUUUAACAUAGGAUAUCGAAUUUAUUAUUUAACGAGAAGGAUGAACAUGAGGAUCACCCAUGUGGUAUCAUGG [Mat - Exclusion 6 - JL Mod - D22] (puzzle: Exclusion 6) | – | – | 109 | 100 | 174 | –
AAUUUACAUGAGGAUCACCCAUGUCAGGAUAUGGUUUUAUUUUUUUCUUUUCUUGAUUCCAGAAGGGACAGUUA (puzzle: Exclusion 1) | – | – | 81.6 | – | – | –
AAUUUACAUGAGGAUCACCCAUGUGAGGAUAUAUAAAUAUAUAUGUUAUUGUAUGUUUGUAGAAGGCGCGUGAU [JR_Exc1_Sub031] (Eterna round: R97, puzzle: Exclusion 1) | 145 | 83.3 | – | – | – | –
AAUUUACAUGAGGAUCACCCAUGUGAGGAUAUAUGUAAACAAUUUUUAUUCAUCAAACAUAGAAGGCGCGUGAU [JR_Exc1_Sub044] (Eterna round: R97, puzzle: Exclusion 1) | 41.3 | 42.6 | – | – | – | –
AAUUUACAUGAGGAUCACCCAUGUGAGGAUAUAUGUUUUAAUUUUUUUUUUUUUUUACAUAGAAGGCGCGUGAU [JR_Exc1_Sub046] (Eterna round: R97, puzzle: Exclusion 1) | 51.7 | 58.5 | – | – | – | –
AAUUUACAUGAGGAUCACCCAUGUGAGGAUAUUGUAUAUUUAUAGAAAUGUGGGUGUGCAAGAAGGCACAUAGG [Alacar 2] (Eterna round: R97, puzzle: Exclusion 1) | 134 | 63.6 | – | – | – | –
AAUUUUUGAUACCUUUAAUACAUGAGGAUCACCCAUGUUAUCGAGGAUAUGUAGAUGAAAUGAGAACAGAAGGCGAAGUAAGAG [JR_ExcNG3_Sub099] (Eterna round: R96, puzzle: Exclusion NG 3) | 41.5 | 15.6 | – | – | – | 3.24
ACAAAGUGAGGAUAUACUAAAACCCUCAUACCCAAAAGGGAACAUGAGGAUCACCCAUGUAGAAGGCACAUAAU [Esmainleor] (puzzle: Exclusion 2) | – | – | 100 | 549 | 92.3 | –
ACAACCAGAGGAUAUGCGCAUAGAUCAGACUUUGUUUCUGAACAUGAGGAUCACCCAUGUAGAAGGCUGUAACC [Ex2 #79] (Eterna round: R97, puzzle: Exclusion 2) | 27.7 | 28.7 | – | – | – | –
ACAAGACAUGAGGAUCACCCAUGUGGUCGGAUGUCAAAGACCGAGGAUAUCAGCGACUGCGCCGCUGAGAAGGCGGAUGGUGCU [Telaed] (Eterna round: R96, puzzle: Exclusion NG 3) | 1260 | 652 | – | – | – | 476
ACAAGAGCGGAAGGAUAUUUUACAUGAGGAUCACCCAUGUAAUAAAUGAGGAUCACGGAUGUAGUAAAGAAGGUCCGGAUAAGA [Ostracism 2 - Jieux - Exclusion NG 2] (Eterna round: R96, puzzle: Exclusion NG 2) | – | – | – | – | – | 18.4
ACAAGCUUUUAGAUUCUUAACAUGAGGAUCACCCAUGUGCUCGUCUUAUUGGGCCCGGGCCCGCCGGGCCCGGGCCC (Eterna round: R97, puzzle: Sensor, turn-off variant 1) | 39.2 | 42.6 | – | – | – | –
ACAAGCUUUUGGAUUUUCAACAUGAGGAUCACCCAUGUUCGUCUUAUGCGAGUGCGAGUGCGGUGUACUCGUAUUAG [JL TOV1 3.86 sellena mod] (Eterna round: R97, puzzle: Sensor, turn-off variant 1) | 25.3 | 24.4 | – | – | – | –
ACAAGCUUUUUGCAACAAGCAUUAAACUCUCAGAUCGUAACAUGAGGAUCACCCAUGUAAGUUUUAUGACGUCUUAU [JR_SV3TOV2_Sub095] (puzzle: Sensor v3, turn-off variant 2) | – | – | 18.1 | 20.8 | 22.9 | –
ACACAAAGCUAGGAUAUCCAGGCAUCUUCGGCCGGAGAAGGAGCCACAUGAGGAUCACCCAUGUGGUGAUCCUG [eternacac ex6r4 sub5] (Eterna round: R97, puzzle: Exclusion 6) | 70.9 | 50.6 | – | – | – | –
ACACAGCAAGGAUAUACAUGAGGAUCACCCAUGUGGCGGCCGUUACGGUAGGACUAGUGUAGAAGGUGCAUUGG [EX3 #33] (Eterna round: R97, puzzle: Exclusion 3) | 167 | 210 | – | – | – | –
ACACUGCGAGGAUAUACAUGAGGAUCACCCAUGUAUCGGUAGACAAGGUUAAUUUAAGGUAGAAGGCGCGUAUU [JR_Ex3_Sub008] (Eterna round: R97, puzzle: Exclusion 3) | 36.9 | 29.1 | – | – | – | –
ACAGAGUCAGGAUAUCGCCGUGGCAGUCUCAACCAGCGGAACGAGAAGGGACAUGAGGAUCACCCAUGUCUGUU [Eternabot (Original) Solution 36] (Eterna round: R97, puzzle: Exclusion 4) | 20.7 | 18.6 | – | – | – | –
ACAUCACAGCUAGGAUAUAGAUGACAUGAGGAUCACCCAUGUUAUCCCAUGUUGACGGAAACCGACUAGAAGGAGCUACAGAUG [Ex NG2 #7] (Eterna round: R96, puzzle: Exclusion NG 2) | 129 | 47.9 | – | – | – | 41.8
ACAUGAGGAUCACCCAUGUCAGGUGGGUCCUCUCCGGCUGUUGAGGAUAUAGUCCGGUAUCCGCGCUAGAAGGUGAGGGCCGGC [Aenatbe mod 17] (Eterna round: R96, puzzle: Exclusion NG 3) | 29.8 | 33.7 | – | – | – | 31.1
ACAUGAGGAUCACCCAUGUCCGUCUGAUCUGUCUCGGCUGUCGAGGAUAUAGCCCGGUAUCCGCGCUAGAAGGUGGGAGUCGGA [Aenatbe mod 100] (Eterna round: R96, puzzle: Exclusion NG 3) | 34.9 | 42 | – | – | – | 33.4
ACAUGAGGAUCACCCAUGUCUGGCUGGUCCGUCUCGGCUGUCGAGGAUAUGGCUCGGUGUCCGCGCUAGAAGGCGGGAGCUGGU [Aenatbe mod 79] (Eterna round: R96, puzzle: Exclusion NG 3) | 195 | 77.5 | – | – | – | 45
ACAUGAGGAUCACCCAUGUGAAAAGAAUGGCUGACACAGAGUUAGGAUAUGCGUGCAUAUCUAACGCAGAAGGGACAUGACUGG [Deportation 82 - Jieux - Exclusion NG 3] (Eterna round: R96, puzzle: Exclusion NG 3) | 33.7 | 30.2 | – | – | – | 33.9
ACAUGAGGAUCACCCAUGUGACCACAAUGGCUGAUAUAGAAACAGGAUAUUCGUGAAUAUCUAACGAAGAAGGGUUAUGACUGG [Deportation 65 - Jieux - Exclusion NG 3] (Eterna round: R96, puzzle: Exclusion NG 3) | – | – | – | – | – | 61
ACAUGAGGAUCACCCAUGUGACCACAAUGGCUGAUGUAACGACAGGAUAUGCGUGAAUAUCUAACGCAGAAGGGUCAUGACUGG [Deportation 61 - Jieux - Exclusion NG 3] (Eterna round: R96, puzzle: Exclusion NG 3) | 62.8 | 48.2 | – | – | – | 30.5
